Data taken from publication PMC2171531.

Target: GST-syntaxin-1 (UniProt P32851)
Test: pull-down

GST-syntaxin-1, sequence (P32851 1-265): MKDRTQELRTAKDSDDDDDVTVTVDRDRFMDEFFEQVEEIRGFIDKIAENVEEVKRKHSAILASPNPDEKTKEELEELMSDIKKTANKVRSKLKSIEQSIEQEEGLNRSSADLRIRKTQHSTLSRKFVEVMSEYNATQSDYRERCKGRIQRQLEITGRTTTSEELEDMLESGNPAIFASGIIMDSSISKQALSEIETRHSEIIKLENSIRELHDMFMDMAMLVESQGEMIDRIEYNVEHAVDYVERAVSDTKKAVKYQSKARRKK

Substance | Kd | percent of the total input bound | amount bound in comparison with MBP-tomosyn
MBP-tomosyn (nonphosphorylated form) (natural protein) | 60 nM | 60% | 
MBP-tomosyn phosphorylated by PKA (natural protein) | 330 nM | 20% | 
MBP-tomosyn-S724D (natural protein) |  |  | 35%
